Assay results reported in US20250376533A1 (FUTUREGEN BIOPHARMACEUTICAL BEIJING, published 2025).
Where two headings read alike, the source gives them in different places.

T1: rat CD40 antigen (ACROBiosystems) (rat, UniProt A6JXD6 20-193)
T1 construct: Bought antigen coated on ELISA plates; construct not described
T1 sequence: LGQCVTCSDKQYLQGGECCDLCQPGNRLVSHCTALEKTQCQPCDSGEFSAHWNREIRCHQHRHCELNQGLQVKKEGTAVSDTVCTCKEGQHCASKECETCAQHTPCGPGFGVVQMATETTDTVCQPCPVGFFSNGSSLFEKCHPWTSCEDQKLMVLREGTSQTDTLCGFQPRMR

B1: anti-PD-L1/CD40 bispecific antibody 1655 (bispecific antibody, human IgG2, kappa)
light: DIQMTQSPSSLSASVGDRVTITCRASQTISSYLNWYQQKPGKAPKLLIYYTSTLQSGVPSRFSGSGSGTDYTLTISSLQPEDFATYYCQQGNAYPWTFGGGTKVEIKRTVAAPSVFIFPPSDEQLKSGTASVVCLLNNFYPREAKVQWKVDNALQSGNSQESVTEQDSKDSTYSLSSTLTLSKADYEKHKVYACEVTHQGLSSPVTKSFNRGEC
heavy: EVQLVESGGGLVQPGGSLRLSCAASGFTFSNYYMSWVRQAPGKGLEWVGFIRNKANAYTTEYAASVKGRFTISRDNSKSTLYLQMNSLRAEDTAVYYCARYGGLKIGWYFDLWGQGTLVTVSSASTKGPSVFPLAPCSRSTSESTAALGCLVKDYFPEPVTVSWNSGALTSGVHTFPAVLQSSGLYSLSSVVTVPSSNFGTQTYTCNVDHKPSNTKVDKTVERKCCVECPPCPAPPVAGPSVFLFPPKPKDTLMISRTPEVTCVVVDVSHEDPEVQFNWYVDGVEVHNAKTKPREEQFNSTFRVVSVLTVVHQDWLNGKEYKCKVSNKGLPAPIEKTISKTKGQPREPQVYTLPPSREEMTKNQVSLTCLVKGFYPSDIAVEWESNGQPENNYKTTPPMLDSDGSFFLYSKLTVDKSRWQQGNVFSCSVMHEALHNHYTQKSLSLSPGGGGGSGGGGSGGGGSGEVQLVESGGGLVQPGGSLRLSCAASGFTFDYYTQCWFRQAPGKEREWVSCISSSEGSTYYADSVKGRFTISRDNSKNTVYLQMNSLKTEDTAVYYCAARKGGPLTIENFFDYWGQGTQVTVSS
notes: First polypeptide chain = anti-CD40 light chain; second polypeptide chain = anti-CD40 heavy chain with the 1541 VHH joined to its C-terminus by a G4S linker
B2: anti-PD-L1 monoclonal antibody 1102 (antibody, human IgG1, V domains shown)
VH: EVQLVESGGGLVQPGGSLRLSCAASGFTFDYYTQCWFRQAPGKEREWVSCISSSEGSTYYADSVKGRFTISRDNAKNTVYLQMNSLRAEDTAVYYCAARKGGPLTIENFFDYWGQGTQVTVSS
B3: anti-PD-L1 monoclonal antibody 1029 (antibody, human IgG1, V domains shown)
VH: EVQLVESGGGLVQPGGSLRLSCAASGFTLDYYSKCWFRQAPGKEREWVSCIGSSDGSTYYADSVKGRFTISRDNAKNTVYLQMNSLRAEDTAVYYCAARNGGPLTIENFFDYWGQGTQVTVSS
B4: anti-PD-L1 monoclonal antibody 1031 (antibody, human IgG1, V domains shown)
VH: EVQLVESGGGLVQPGGSLRLSCAASGFTFEYYTKCWFRQAPGKEREWVSCISTSEGSTYYADSVKGRFTISRDNAKNTVYLQMNSLRAEDTAVYYCAARKGGPLTIENFFDYWGQGTQVTVSS
B5: anti-PD-L1 monoclonal antibody 1541 (antibody, human IgG1, V domains shown)
VH: EVQLVESGGGLVQPGGSLRLSCAASGFTFDYYTQCWFRQAPGKEREWVSCISSSEGSTYYADSVKGRFTISRDNSKNTVYLQMNSLKTEDTAVYYCAARKGGPLTIENFFDYWGQGTQVTVSS

Legend:
[1] = molecular target: T2, human CD40 antigen (ACROBiosystems) (human, UniProt P25942 21-193); experiment: bridging ELISA: coated human CD40, serially diluted bispecific antibody, detection with biotin-labeled human PD-L1 and streptavidin-HRP, OD450
T2 construct: Bought antigen coated on ELISA plates; construct not described
Procedure: Antigen human CD40 (purchased from ACROBiosystems) was coated with 1 μg/mL carbonate buffer (pH=9.6) in an ELISA plate at 100 μL per well, followed by incubation at 4° C. overnight. The wells were washed 5 times with PBST. 300 μL/well of PBST containing 1% BSA was added to block the wells, and the plate was incubated at room temperature for 1 hour. The wells were washed 5 times with PBST. […] The wells were washed 5 times with PBST. Biotin-labeled human PD-L1 (FutureGen Biopharmaceutical) diluted with PBST containing 1% BSA was added at 100 μL per well, and the plate was incubated at room temperature for 1 hour. The wells were washed 5 times with PBST. Streptavidin-HRP (BioLegend, Cat. No. 405210) diluted with PBST containing 1% BSA was added at 100 μL per well, and the plate was incubated at room temperature for 30 minutes. Colorimetric substrate TMB was added at 100 μL per well and allowed to develop color at room temperature for 10 minutes, followed by the addition of 1 M sulfuric acid to terminate the reaction. The OD_[…] was read on a microplate reader to analyze the results, and the EC₅₀ was calculated using a 4-parameter fit binding curve.

[2] = molecular target: T1, rat CD40 antigen (ACROBiosystems); experiment: ELISA, coated antigen
Procedure: (§1) The binding ability of bispecific antibody to human PD-L1 and human CD40, as well as the species specificity, was detected using an enzyme-linked immunosorbent assay (ELISA). The specific method is as follows: human PD-L1, cynomolgus PD-L1, rat PD-L1, mouse PD-L1, human CD40, cynomolgus CD40, rat CD40, and mouse CD40 antigens (all purchased from ACROBiosystems) were coated with 1 μg/mL carbonate buffer (pH=9.6) in an ELISA plate at 100 μL per well, followed by incubation at 4° C. overnight. The wells were washed 5 times with PBST. 300 μL/well of PBST containing 1% BSA was added to block the wells, and the plate was incubated at room temperature for 1 hour. The wells were washed 5 times with PBST. […] The wells were washed 5 times with PBST. […] The wells were washed 5 times with PBST. Colorimetric substrate TMB was added at 100 μL per well and allowed to develop color at room temperature for 10 minutes, followed by the addition of 1 M sulfuric acid to terminate the reaction. The OD_{450 nm} was read on a microplate reader to analyze the results, and the EC₅₀ was calculated using a 4-parameter fit binding curve.
(§2) These bispecific antibodies are not able to bind to rat PD-L1 and CD40 or mouse PD-L1 and CD40.

[3] = molecular target: T3, mouse CD40 antigen (ACROBiosystems) (mouse, UniProt P27512 24-193, limits assumed); experiment: ELISA, coated antigen
T3 construct: Bought antigen coated on ELISA plates; construct not described
Procedure: as §1, §2

[4] = molecular target: T4, human PD-L1 antigen (ACROBiosystems) (human, UniProt Q9NZQ7 19-238); experiment: ELISA, coated antigen
T4 construct: Bought antigen coated on ELISA plates
Procedure: as §1, §2

[5] = molecular target: T2, human CD40 antigen (ACROBiosystems); experiment: ELISA, coated antigen
Procedure: as §1, §2

[6] = molecular target: T5, mouse PD-L1 antigen (ACROBiosystems) (mouse, UniProt Q9EP73 19-239); experiment: ELISA, coated antigen
T5 construct: Bought antigen coated on ELISA plates; construct not described
Procedure: as §1, §2

[7] = molecular target: T6, cynomolgus PD-L1 antigen (ACROBiosystems) (cynomolgus, UniProt G7PSE7 19-238); experiment: ELISA, coated antigen
T6 construct: Bought antigen coated on ELISA plates; construct not described
Procedure: as §1, §2

[8] = molecular target: T7, rat PD-L1 antigen (ACROBiosystems) (rat, UniProt D4AE25 19-239); experiment: ELISA, coated antigen
T7 construct: Bought antigen coated on ELISA plates; construct not described
Procedure: as §1, §2

[9] = molecular target: T8, cynomolgus CD40 antigen (ACROBiosystems) (cynomolgus, UniProt G7PG38 21-193); experiment: ELISA, coated antigen
T8 construct: Bought antigen coated on ELISA plates; construct not described
Procedure: as §1, §2

[10] = molecular target: T9, CD40 on HEK-Blue CD40L cells (InvivoGen) (UniProt P25942 21-277, limits assumed); experiment: cell-based or functional assay
[11] = molecular target: T9, CD40 on HEK-Blue CD40L cells (InvivoGen); experiment: flow cytometry, competition with 10 nM Biotin-CD40L on HEK-Blue CD40L cells
Procedure: The blocking effect of bispecific antibodies on CD40/CD40L binding was tested using HEK-Blue CD40L cells that highly express CD40. The specific method is as follows: HEK-Blue CD40L cells were collected and resuspended in pre-cooled PBS containing 2% FBS at a density of 1E7 cells/mL, and then added to a 96-well plate at 50 μL per well, i.e., 5E5 cells/well. Biotin-CD40L (FutureGen Biopharmaceutical) and serially diluted bispecific antibody were then added at 50 μL per well, with a final concentration of Biotin-CD40L of 10 nM, and the plate was incubated at 4° C. for 1 hour. The wells were washed twice with pre-cooled PBS. Streptavidin-PE (BioLegend, Cat. No. 405203) diluted in pre-cooled PBS containing 2% FBS was added, and the plate was incubated at 4° C. for 30 minutes. The wells were washed twice with pre-cooled PBS. The cells were then resuspended in pre-cooled PBS containing 2% FBS and assayed by flow cytometry.

[12] = molecular target: T4, human PD-L1 antigen (ACROBiosystems); experiment: BLI (Gator), antibody captured on PA probe, human PD-L1 in solution
Procedure: The interaction between monoclonal antibodies and antigens was detected using Gator, a label-free biomolecular interaction analyzer based on the principle of biolayer interferometry (BLI). The specific method is as follows: monoclonal antibody was diluted to 50 nM and added to a probe plate using a PA probe, allowing the monoclonal antibody to be captured by the PA probe. Human PD-L1, an antigen serially diluted starting from 200 nM, was then added for interaction with the […] captured by the PA probe. The interaction was analyzed by detecting the signal change of the reflected interference spectrum on the surface of the probe, and the binding kinetic constants of the antibody were finally calculated.

[13] = molecular target: T4, human PD-L1 antigen (ACROBiosystems); experiment: ELISA, coated antigen; remark: listed apart in the source
Procedure: as §1, with “monoclonal” for “bispecific”, “PD-L1,” for “PD-L1 and human CD40,”, “PD-L1,” for “PD-L1, mouse PD-L1, human CD40, cynomolgus CD40, rat CD40,”, “PD-L1” for “CD40”
(§3) These monoclonal antibodies are not able to bind to rat PD-L1 or mouse PD-L1.

[14] = molecular target: T5, mouse PD-L1 antigen (ACROBiosystems); experiment: ELISA, coated antigen; remark: listed apart in the source
Procedure: as §1, with “monoclonal” for “bispecific”, “PD-L1,” for “PD-L1 and human CD40,”, “PD-L1,” for “PD-L1, mouse PD-L1, human CD40, cynomolgus CD40, rat CD40,”, “PD-L1” for “CD40”
as §3

[15] = molecular target: T6, cynomolgus PD-L1 antigen …; experiment: ELISA, coated antigen; remark: listed apart in the source
Procedure: as §1, with “monoclonal” for “bispecific”, “PD-L1,” for “PD-L1 and human CD40,”, “PD-L1,” for “PD-L1, mouse PD-L1, human CD40, cynomolgus CD40, rat CD40,”, “PD-L1” for “CD40”
as §3

[16] = molecular target: T7, rat PD-L1 antigen (ACROBiosystems); experiment: ELISA, coated antigen; remark: listed apart in the source
Procedure: as §1, with “monoclonal” for “bispecific”, “PD-L1,” for “PD-L1 and human CD40,”, “PD-L1,” for “PD-L1, mouse PD-L1, human CD40, cynomolgus CD40, rat CD40,”, “PD-L1” for “CD40”
as §3

T5 sequence (Q9EP73 19-239 limits assumed): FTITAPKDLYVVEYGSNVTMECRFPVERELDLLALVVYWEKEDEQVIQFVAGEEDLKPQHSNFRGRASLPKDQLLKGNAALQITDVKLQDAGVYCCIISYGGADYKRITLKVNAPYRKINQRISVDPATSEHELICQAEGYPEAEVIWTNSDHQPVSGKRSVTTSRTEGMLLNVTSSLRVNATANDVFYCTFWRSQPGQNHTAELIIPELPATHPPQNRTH
T7 sequence (D4AE25 entry or part of it limits assumed): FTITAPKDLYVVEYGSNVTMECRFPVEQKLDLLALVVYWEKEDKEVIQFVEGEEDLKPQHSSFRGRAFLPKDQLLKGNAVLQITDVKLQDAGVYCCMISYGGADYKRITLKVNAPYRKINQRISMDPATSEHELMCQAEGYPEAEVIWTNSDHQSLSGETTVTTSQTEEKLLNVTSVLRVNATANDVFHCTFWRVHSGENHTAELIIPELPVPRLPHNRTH
T4 sequence (Q9NZQ7 19-238 limits assumed): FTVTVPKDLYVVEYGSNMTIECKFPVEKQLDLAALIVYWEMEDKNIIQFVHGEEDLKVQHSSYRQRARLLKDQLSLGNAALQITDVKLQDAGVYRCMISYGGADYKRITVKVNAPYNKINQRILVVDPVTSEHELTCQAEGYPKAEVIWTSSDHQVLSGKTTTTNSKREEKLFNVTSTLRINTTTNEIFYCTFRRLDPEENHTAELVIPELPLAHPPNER
T9 sequence (P25942 21-277 limits assumed): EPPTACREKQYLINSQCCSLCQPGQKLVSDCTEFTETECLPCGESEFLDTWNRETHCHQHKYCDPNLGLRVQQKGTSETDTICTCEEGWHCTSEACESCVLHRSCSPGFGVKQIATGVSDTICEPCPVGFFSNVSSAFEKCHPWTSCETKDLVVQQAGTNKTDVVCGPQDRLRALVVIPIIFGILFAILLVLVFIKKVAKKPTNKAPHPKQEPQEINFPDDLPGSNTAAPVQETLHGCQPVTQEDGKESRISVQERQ
T6 sequence (G7PSE7 entry or part of it): as the sequence (Q9NZQ7 19-238 limits assumed) above, with A33T, A34S, S62N, R68Q, Q82R, F173L, T185A, T192I, H215L counted along it
T2 sequence (P25942 21-193 limits assumed): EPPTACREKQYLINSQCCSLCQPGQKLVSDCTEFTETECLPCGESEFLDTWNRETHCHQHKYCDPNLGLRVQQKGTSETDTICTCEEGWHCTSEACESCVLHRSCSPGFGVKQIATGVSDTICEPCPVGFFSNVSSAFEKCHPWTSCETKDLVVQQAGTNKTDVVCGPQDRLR
T3 sequence (P27512 24-193 limits assumed): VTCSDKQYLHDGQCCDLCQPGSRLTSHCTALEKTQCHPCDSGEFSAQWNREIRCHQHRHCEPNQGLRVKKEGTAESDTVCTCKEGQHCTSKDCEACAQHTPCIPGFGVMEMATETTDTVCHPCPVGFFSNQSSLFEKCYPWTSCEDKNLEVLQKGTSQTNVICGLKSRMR

Binder | EC50 [1] | binding result [2] | binding result [3] | EC50 [4] | EC50 [5] | binding result [6] | EC50 [7] | binding result [8] | EC50 [9] | CD40 agonistic activity (A)/(B) Ratio, EC50 without over with CHO/PD-L1 [10] | CD40 agonistic activity EC50 (nM) with CHO/PD-L1 (B), SEAP reporter [10] | CD40 agonistic activity EC50 (nM) without CHO/PD-L1 (A), SEAP reporter [10] | IC50 [11] | Kd [12] | koff [12] | kon [12] | EC50 [13] | binding result [14] | EC50 [15] | binding result [16]
B1 | 0.039 nM | no binding | no binding | 0.039 nM | 0.025 nM | no binding | 0.023 nM | no binding | 0.006 nM | 25.3 | 0.027 nM | 0.686 nM | 8.63 nM |  |  |  |  |  |  | 
B2 |  |  |  |  |  |  |  |  |  |  |  |  |  | 4.41 nM | 0.00451 s⁻¹ | 1.02e+06 M⁻¹ s⁻¹ | 0.013 nM | no binding | 0.013 nM | no binding
B3 |  |  |  |  |  |  |  |  |  |  |  |  |  | 4.37 nM | 0.00422 s⁻¹ | 967000 M⁻¹ s⁻¹ | 0.012 nM | no binding | 0.013 nM | no binding
B4 |  |  |  |  |  |  |  |  |  |  |  |  |  | 8.3 nM | 0.00913 s⁻¹ | 1.1e+06 M⁻¹ s⁻¹ | 0.02 nM | no binding | 0.018 nM | no binding
B5 |  |  |  |  |  |  |  |  |  |  |  |  |  | 4.38 nM | 0.00293 s⁻¹ | 670000 M⁻¹ s⁻¹ | 0.014 nM | no binding | 0.018 nM | no binding
